# B1: epidermal growth factor (protein, UniProt P01133 23-1207, looked up)
# Pro-epidermal growth factor: PQHWSCPEGTLAGNGNSTCVGPAPFLIFSHGNSIFRIDTEGTNYEQLVVDAGVSVIMDFHYNEKRIYWVDLERQLLQRVFLNGSRQERVCNIEKNVSGMAINWINEEVIWSNQQEGIITVTDMKGNNSHILLSALKYPANVAVDPVERFIFWSSEVAGSLYRADLDGVGVKALLETSEKITAVSLDVLDKRLFWIQYNREGSNSLICSCDYDGGSVHISKHPTQHNLFAMSLFGDRIFYSTWKMKTIWIANKHTGKDMVRINLHSSFVPLGELKVVHPLAQPKAEDDTWEPEQKLCKLRKGNCSSTVCGQDLQSHLCMCAEGYALSRDRKYCEDVNECAFWNHGCTLGCKNTPGSYYCTCPVGFVLLPDGKRCHQLVSCPRNVSECSHDCVLTSEGPLCFCPEGSVLERDGKTCSGCSSPDNGGCSQLCVPLSPVSWECDCFPGYDLQLDEKSCAASGPQPFLLFANSQDIRHMHFDGTDYGTLLSQQMGMVYALDHDPVENKIYFAHTALKWIERANMDGSQRERLIEEGVDVPEGLAVDWIGRRFYWTDRGKSLIGRSDLNGKRSKIITKENISQPRGIAVHPMAKRLFWTDTGINPRIESSSLQGLGRLVIASSDLIWPSGITIDFLTDKLYWCDAKQSVIEMANLDGSKRRRLTQNDVGHPFAVAVFEDYVWFSDWAMPSVMRVNKRTGKDRVRLQGSMLKPSSLVVVHPLAKPGADPCLYQNGGCEHICKKRLGTAWCSCREGFMKASDGKTCLALDGHQLLAGGEVDLKNQVTPLDILSKTRVSEDNITESQHMLVAEIMVSDQDDCAPVGCSMYARCISEGEDATCQCLKGFAGDGKLCSDIDECEMGVPVCPPASSKCINTEGGYVCRCSEGYQGDGIHCLDIDECQLGEHSCGENASCTNTEGGYTCMCAGRLSEPGLICPDSTPPPHLREDDHHYSVRNSDSECPLSHDGYCLHDGVCMYIEALDKYACNCVVGYIGERCQYRDLKWWELRHAGHGQQQKVIVVAVCVVVLVMLLLLSLWGAHYYRTQKLLSKNPKNPYEESSRDVRSRRPADTEDGMSSCPQPWFVVIKEHQDLKNGGQPVAGEDGQAADGSMQPTSWRQEPQLCGMGTEQGCWIPVSSDKGSCPQVMERSFHMPSYGTQTLEGGVEKPHSLLSANPLWQQRALDPPHQMELTQ
# modifications: Pro-epidermal growth factor
# notes: epidermal growth factor, purchased from Sigma
# Experiments:
# MYCN expression = test: Immunoblot of MYCN expression in SK-N-BE cells treated with EGF; assay type: cell-based
# Method: A neuroblastoma cell line SK-N-BE was cultured for 10 hours in media containing EGF at a variety of concentrations, by using an anti-phosphorylated EGFR antibody, an anti-EGFR antibody, an anti-MYCN antibody and an anti-actin antibody, the phosphorylation of an EGF receptor and the expression of MYCN were analyzed by an immunoblot method. FIG. 19 is a photograph showing a result of immunoblot. […] FIG. 20 is a photograph in which SK-N-BE cells were cultured in a medium containing 10 ng/ml EGF for different periods of time and the expression of MYCN was analyzed by an immunoblot method using an anti-MYCN antibody and an anti-actin antibody. […] From the above-mentioned results, it is thought that the following positive feed-back mechanism is present. That is to say, by EGF treatment, an EGFR signal is activated and the expression of MYCN is promoted. Next, by MYCN, transcription of NLRR1 is promoted. Next, the expression of NLRR1 is increased and activated. Next, by NLRR1, an EGFR signal is activated. Next, the expression of MYCN is further promoted.
# [1] = test system: SK-N-BE cells, NLF cells, SH-SY5Y cells, SMS-SAN cells; test: MTT assay, EGF-induced proliferation of neuroblastoma-derived cells; assay type: cell-based; conditions: SK-N-BE, NLF, SH-SY5Y, SMS-SAN cells, 10 ng/ml EGF
# Method: SK-N-BE cells, NLF cells, SH-SY5Y cells, SMS-SAN cells, which are cell lines derived from neuroblastoma, and SK-N-BE cells into which siRNA against NLRR1 was introduced were cultured in the presence and absence of 10 ng/ml EGF, and the cell proliferation was quantified by the MTT assay over time. FIG. 28 is a graph showing the cell proliferation, showing the change fold ratio of the proliferation of cells in the presence of EGF to the proliferation of cells in the absence of EGF.
molecule,measurement,setting,value
B1,"expression of MYCN (immunoblot), time course","MYCN expression; 10 ng/ml EGF, different periods of time",Increased expression of MYCN by EGF over time
same,"expression of MYCN (immunoblot), EGF concentration dependence","MYCN expression; 10 hours, EGF at a variety of concentrations",the expression of MYCN is increased depending upon the concentration of EGF
same,"proliferation of cells (MTT assay, fold ratio with vs without EGF)",[1],the proliferation of cells derived from neuroblastoma is promoted

# Source: patent publication US20110124006A1, “METHOD FOR SCREENING OF THERAPEUTIC AGENT FOR CANCER” (Hismitsu Pharmaceutical Co., Inc., priority 2008, published 2011)
